The values that follow come from patent US20180186853A1 (HANMI PHARM, published 2018).

This assay deals with human glucagon receptor (human, UniProt P47871 26-477). Briefly: cell-based or functional assay.

Positions of bridges follow the written chain, without caps; N, C: chain ends. Non-standard residues stand in square brackets, D forms with d. No end group written: not given here. Aib = CC(C)(N)C(=O)O Some results are limits rather than exact numbers.

Sequence of human glucagon receptor (P47871 26-477): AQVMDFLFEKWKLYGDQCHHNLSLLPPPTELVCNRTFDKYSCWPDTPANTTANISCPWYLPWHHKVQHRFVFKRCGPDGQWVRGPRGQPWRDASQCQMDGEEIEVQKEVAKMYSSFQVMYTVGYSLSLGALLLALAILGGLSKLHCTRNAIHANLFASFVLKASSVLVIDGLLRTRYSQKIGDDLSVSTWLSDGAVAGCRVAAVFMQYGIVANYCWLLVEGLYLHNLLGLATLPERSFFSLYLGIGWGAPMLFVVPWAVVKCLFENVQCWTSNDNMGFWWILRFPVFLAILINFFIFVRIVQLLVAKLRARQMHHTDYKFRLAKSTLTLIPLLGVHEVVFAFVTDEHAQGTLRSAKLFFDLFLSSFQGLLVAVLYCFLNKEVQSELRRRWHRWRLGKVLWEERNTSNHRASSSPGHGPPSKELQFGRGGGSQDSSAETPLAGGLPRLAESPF

Turning to Y[Aib]QGTFVSDCSKYLDERRAKDFVQWLMNT (bridge 16-20; also: ring between positions 16 and 20, kind not given here) [glucagon derivative of SEQ ID NO: 39], the “In vitro Activity (Relative Activity of SEQ ID NO: 1, %), from cAMP EC50” value amounted to 3.7%.
Regarding W[Aib]QGTFVSDYSKYLDECRAKDFVQWLMNT (bridge 16-20; also: ring between positions 16 and 20, kind not given here) [glucagon derivative of SEQ ID NO: 28], the “In vitro Activity (Relative Activity of SEQ ID NO: 1, %), from cAMP EC50” value is below 0.1%.
For the molecule Y[Aib]QGTFTSDYSCYLDSRRAQDFVQWLMNT [glucagon derivative of SEQ ID NO: 13], the “In vitro Activity (Relative Activity of SEQ ID NO: 1, %), from cAMP EC50” value was determined as 5.2%.
For Y[Aib]QGTFTSDCSKYLDERRAKEFVQWLMNT (bridge 16-20; also: ring between positions 16 and 20, kind not given here) [glucagon derivative of SEQ ID NO: 36], the “In vitro Activity (Relative Activity of SEQ ID NO: 1, %), from cAMP EC50” value was determined as 9.9%.
The figure for Y[Aib]QGTFTSDYSKYLDCKRAKEFVQWLMNT (not fully specified (bridges)) [glucagon derivative of SEQ ID NO: 14] is 18.1%.
Consider Y[Aib]QGTFTSDYSKCLDEKRAKEFVQWLMNT (bridge 16-20; also: ring between positions 16 and 20, kind not given here) [glucagon derivative of SEQ ID NO: 24], for which the “In vitro Activity (Relative Activity of SEQ ID NO: 1, %), from cAMP EC50” value was found to be 58%.
W[Aib]QGTFTSDYSKYCDERRAKEFVQWLMNT (bridge 16-20; also: ring between positions 16 and 20, kind not given here) [glucagon derivative of SEQ ID NO: 34]: the “In vitro Activity (Relative Activity of SEQ ID NO: 1, %), from cAMP EC50” value was determined as 0.2%.
As to HSQGTFTSDYSKYLDCERAQDFVQWLMNT [glucagon derivative of SEQ ID NO: 3], the “In vitro Activity (Relative Activity of SEQ ID NO: 1, %), from cAMP EC50” value was determined as 6.1%.
In the case of Y[Aib]QGTFTSDYSKYLCEKRAKEFVQWLMNT (bridge 16-20; also: ring between positions 16 and 20, kind not given here) [glucagon derivative of SEQ ID NO: 19] it was 12.1%.
On to Y[Aib]QGTFTSDYSKYLDCKRAKEFVQWLMNT (bridge 17-21; also: ring between positions 17 and 21, kind not given here) [glucagon derivative of SEQ ID NO: 31], for which the “In vitro Activity (Relative Activity of SEQ ID NO: 1, %), from cAMP EC50” value came to 6.3%.
In the case of Y[Aib]QGTFTSDYSKYLDSCDAQDFVVWLINT [glucagon derivative of SEQ ID NO: 9] it was below 0.1%; in that of Y[Aib]QGTFTSDYSKYLDEKRAKCFVQWLMNT (bridge 16-20; also: ring between positions 16 and 20, kind not given here) [glucagon derivative of SEQ ID NO: 25], 46.9%.
For the molecule W[Aib]QGTFTSDYSKCLDERRAKDFVQWLMNT (bridge 16-20; also: ring between positions 16 and 20, kind not given here) [glucagon derivative of SEQ ID NO: 30], the “In vitro Activity (Relative Activity of SEQ ID NO: 1, %), from cAMP EC50” value worked out at 0.3%.
Consider YXQGTFTSDYSKYLDSRRAQDFVQWLMNT (X at position 2 = aminoisobutyric acid (Aib)) [glucagon derivative of SEQ ID NO: 33], for which the “In vitro Activity (Relative Activity of SEQ ID NO: 1, %), from cAMP EC50” value is 108%.
For the molecule Y[Aib]QGTFTSDYSKYCDEKRAKEFVQWLMNT (bridge 16-20; also: ring between positions 16 and 20, kind not given here) [glucagon derivative of SEQ ID NO: 23], the “In vitro Activity (Relative Activity of SEQ ID NO: 1, %), from cAMP EC50” value was 76.8%.
With Y[Aib]QGTFTSDYSKYLDEKRAKEFVQWLMNTC (bridge 16-20; also: ring between positions 16 and 20, kind not given here) [glucagon derivative of SEQ ID NO: 12], the “In vitro Activity (Relative Activity of SEQ ID NO: 1, %), from cAMP EC50” value was determined as 56.3%.
For Y[Aib]QGTFTSDYSKYLCEKRAQDFVVWLMNT [glucagon derivative of SEQ ID NO: 15], the “In vitro Activity (Relative Activity of SEQ ID NO: 1, %), from cAMP EC50” value was determined as 1.1%.
As for Y[Aib]QGTFVSDYSKYLDERRAKDFVQWLMNTC (bridge 16-20; also: ring between positions 16 and 20, kind not given here) [glucagon derivative of SEQ ID NO: 40], the “In vitro Activity (Relative Activity of SEQ ID NO: 1, %), from cAMP EC50” value was 40.8%.
In the case of Y[Aib]QGTFTSDCSKYLDSRRAQDFVQWLMNT [glucagon derivative of SEQ ID NO: 43] it was 1.6%.
For Y[Aib]QGTFTSDYSKYCDERRAKEFVQWLMNT (bridge 16-20; also: ring between positions 16 and 20, kind not given here) [glucagon derivative of SEQ ID NO: 35], the “In vitro Activity (Relative Activity of SEQ ID NO: 1, %), from cAMP EC50” value amounted to 17.7%.
Y[Aib]QGTFTSDYSKYLDERRAKEFVQWLMNTC (bridge 16-20; also: ring between positions 16 and 20, kind not given here) [glucagon derivative of SEQ ID NO: 37]: the “In vitro Activity (Relative Activity of SEQ ID NO: 1, %), from cAMP EC50” value is 226%.
For Y[Aib]QGTFTSDYSKYLDEKCAKEFVQWLMNT (not fully specified (bridges)) [glucagon derivative of SEQ ID NO: 11], the “In vitro Activity (Relative Activity of SEQ ID NO: 1, %), from cAMP EC50” value stood at 4.6%.
As to HSQGTFTSDYSKYLDCDRAQDFVQWLMNT [glucagon derivative of SEQ ID NO: 2], the “In vitro Activity (Relative Activity of SEQ ID NO: 1, %), from cAMP EC50” value was found to be 0.6%.
As to Y[Aib]QGTFTSDYSKYLDECRAKEFVQWLMNT (bridge 16-20; also: ring between positions 16 and 20, kind not given here) [glucagon derivative of SEQ ID NO: 20], the “In vitro Activity (Relative Activity of SEQ ID NO: 1, %), from cAMP EC50” value worked out at 300%.
Take Y[Aib]QGTFTSDYSKYLDSCDADDFVVWLINT [glucagon derivative of SEQ ID NO: 10]: the “In vitro Activity (Relative Activity of SEQ ID NO: 1, %), from cAMP EC50” value was below 0.1%.
Consider Y[Aib]QGTFTSDYSKYLDEKCAKEFVQWLMNT (bridge 16-20; also: ring between positions 16 and 20, kind not given here) [glucagon derivative of SEQ ID NO: 21], for which the “In vitro Activity (Relative Activity of SEQ ID NO: 1, %), from cAMP EC50” value amounted to 57.8%.
As for W[Aib]QGTFTSDYSKYLDECRAKDFVQWLMNT (bridge 16-20; also: ring between positions 16 and 20, kind not given here) [glucagon derivative of SEQ ID NO: 26], the “In vitro Activity (Relative Activity of SEQ ID NO: 1, %), from cAMP EC50” value turned out to be 1%.
SQGTFTSDYSKYLDECRAKEFVQWLMNT (lactam 15-19) [glucagon derivative of SEQ ID NO: 32]: the “In vitro Activity (Relative Activity of SEQ ID NO: 1, %), from cAMP EC50” value is 0.7%.
Turning to Y[Aib]QGTFTSDYSKYLDSRRACDFRLWLMNT [glucagon derivative of SEQ ID NO: 18], the “In vitro Activity (Relative Activity of SEQ ID NO: 1, %), from cAMP EC50” value is below 0.1%.
The figure for Y[Aib]QGTFVSDYSKYLDECRAKDFVQWLMNT (bridge 16-20; also: ring between positions 16 and 20, kind not given here) [glucagon derivative of SEQ ID NO: 27] is 93.6%.
Take YXQGTFTSDYSKYLDSRRAQDFVQWLMNTC (X at position 2 = aminoisobutyric acid (Aib)) [glucagon derivative of SEQ ID NO: 44]: the “In vitro Activity (Relative Activity of SEQ ID NO: 1, %), from cAMP EC50” value worked out at 75.4%.
As for Y[Aib]QGTFCSDYSKYLDERRAKEFVQWLMNT (bridge 16-20; also: ring between positions 16 and 20, kind not given here) [glucagon derivative of SEQ ID NO: 38], the “In vitro Activity (Relative Activity of SEQ ID NO: 1, %), from cAMP EC50” value was determined as 167%.
On to Y[Aib]QGTFCSDYSKYLDSRRAQDFVQWLMNT [glucagon derivative of SEQ ID NO: 42], for which the “In vitro Activity (Relative Activity of SEQ ID NO: 1, %), from cAMP EC50” value stood at 37.9%.
For the molecule Y[Aib]QGTFTSDYSKYLDCVRAQDFVQWLMRT [glucagon derivative of SEQ ID NO: 17], the “In vitro Activity (Relative Activity of SEQ ID NO: 1, %), from cAMP EC50” value worked out at 23.2%.
For Y[Aib]QGTFTSDYSKCLDERRAKDFVQWLMNT (bridge 16-20; also: ring between positions 16 and 20, kind not given here) [glucagon derivative of SEQ ID NO: 29], the “In vitro Activity (Relative Activity of SEQ ID NO: 1, %), from cAMP EC50” value stood at 61.3%.
As to Y[Aib]QGTFTSDYSKYLDCRRAQVFVQWLMRT [glucagon derivative of SEQ ID NO: 16], the “In vitro Activity (Relative Activity of SEQ ID NO: 1, %), from cAMP EC50” value worked out at 4.2%.
Regarding Y[Aib]QGTFCSDYSKYLDERRAKDFVQWLMNT (bridge 16-20; also: ring between positions 16 and 20, kind not given here) [glucagon derivative of SEQ ID NO: 41], the “In vitro Activity (Relative Activity of SEQ ID NO: 1, %), from cAMP EC50” value worked out at 45.2%.
In the case of Y[Aib]QGTFTSDYSKYLDEKRCKEFVQWLMNT (bridge 16-20; also: ring between positions 16 and 20, kind not given here) [glucagon derivative of SEQ ID NO: 22] it was 148%.
